# Test results: PMC2777442 (Nucleic Acids Research, 2009)
# Where two headings read alike, the source gives them in different places.
# T1: TFAM (mature, MTS removed) (Homo sapiens, UniProt Q00059 50-246)
# T1 sequence: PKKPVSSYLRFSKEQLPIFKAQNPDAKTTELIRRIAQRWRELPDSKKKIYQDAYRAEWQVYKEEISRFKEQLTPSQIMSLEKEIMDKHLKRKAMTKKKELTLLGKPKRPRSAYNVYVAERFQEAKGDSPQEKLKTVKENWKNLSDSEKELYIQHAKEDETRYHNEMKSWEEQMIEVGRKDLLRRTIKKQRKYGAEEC
# Key:
# [1] = biological target: T1, TFAM (mature, MTS removed); test: fluorescence anisotropy
# [2] = biological target: T1, TFAM (mature, MTS removed); test: fluorescence anisotropy; remark: listed apart in the source
# [3] = biological target: the molecule itself; test: AUC
binder,measurement,setting,value
Bulged-DNA-S (dsDNA) DNA 1: CGATATTAAGAGCC DNA 2: GGCTCAATATCG,apparent K (half saturation),[1],164 ± 17 nM
Normal-DNA-S (dsDNA) DNA 1: CGATATTGAGCC DNA 2: GGCTCAATATCG,apparent K (half saturation),[2],413 ± 59 nM
"Human mitochondrial transcription factor A (TFAM), residues 50-246 (natural protein, UniProt Q00059-1 50-246, looked up) PKKPVSSYLRFSKEQLPIFKAQNPDAKTTELIRRIAQRWRELPDSKKKIYQDAYRAEWQVYKEEISRFKEQLTPSQIMSLEKEIMDKHLKRKAMTKKKELTLLGKPKRPRSAYNVYVAERFQEAKGDSPQEKLKTVKENWKNLSDSEKELYIQHAKEDETRYHNEMKSWEEQMIEVGRKDLLRRTIKKQRKYGAEEC",stoichiometry N,[3],2
